From US12723246 (UNIVERSITY OF MASSACHUSETTS, dated 2026) come the findings set out here.

This data set concerns the molecule itself. Put plainly: negative-stain EM of the precipitate formed after tag cleavage; self-assembly into capsid-like structures. From the text: Given that dArc Iresembles a Gag protein, and that retroviral Gag proteins have the ability to auto-assemble into capsids, the precipitate was examined at the EM level by negative staining. The presence of round structures of about 39.3±5.2 nm was seen, which resembled HIV capsids. FIGS. 8A and 8B.

B1: purified dArc1 protein, bacterially produced, after cleavage of the HIS-MBP tag (other, Drosophila, UniProt Q7K1U0 1-254, looked up)
chain: MAQLTQMTNEQLRELIEAVRAAAVGAAGSAAAAGGADASRGKGNFSACTHSFGGTRDHDVVEEFIGNIETYKDVEGISDENALKGISLLFYGMASTWWQGVRKEATTWKEAIALIREHFSPTKPAYQIYMEFFQNKQDDHDPIDTFVIQKRALLAQLPSGRHDEETELDLLFGLLNIKYRKHISRHSVHTFKDLLEQGRIIEHNNQEDEEQLATAKNTRGSKRTTRCTYCSFRGHTFDNCRKRQKDRQEEQHEE
notes: Self-assembles into capsid-like structures of about 39.3±5.2 nm; also called His-MBP-dArc1 (before cleavage)
As to B1, the binding result is “binds”.
